Measurements taken from the supplement of paper PMC5998384.

How the values were obtained:
HeLa Kyoto [1] = experiment: solubility in G1/S (NP-40 vs SDS abundance) (log2 ratio); higher = more soluble; details: cell cycle stage: G1/S
HeLa Kyoto [2] = experiment: melting temperature (median over replicates), in situ; higher = more thermally stable
HeLa Kyoto [3] = experiment: solubility change mitosis vs G1/S (difference of NP-40 vs SDS log2 ratios) (log2 ratio difference); higher = more soluble in mitosis
HeLa Kyoto [4] = experiment: thermal stability score vs G1/S (z-score of summed log2 fold changes over temperatures); higher = more thermally stable than in G1/S
[5] = cell cycle stage: early G1 (4.5 h after nocodazole release)
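Wherever melting temperature (median over replicates), in situ is given: HeLa Kyoto cells synchronized by double thymidine or nocodazole block, proteins quantified by TMT10plex mass spectrometry, three independent biological replicates.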
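Wherever solubility change mitosis vs G1/S (difference of NP-40 vs SDS log2 ratios) is given: synchronized HeLa Kyoto cells (double thymidine block for G1/S, nocodazole release for mitosis), protein amounts in NP-40 versus SDS lysates quantified by mass spectrometry, three biological replicates.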
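Wherever solubility in G1/S (NP-40 vs SDS abundance) is given: HeLa Kyoto cells arrested at G1/S by double thymidine block, proteins quantified by TMT10plex mass spectrometry in mild NP-40 versus SDS extracts, three biological replicates.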
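Wherever thermal stability score vs G1/S (z-score of summed log2 fold changes over temperatures) is given: synchronized HeLa Kyoto cells, proteins quantified by TMT10plex mass spectrometry, three biological replicates, mitosis taken 0.5 h after nocodazole release, G1/S directly after double thymidine block.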

Substance	solubility in G1/S (log2) (HeLa Kyoto [1])	melting temperature (HeLa Kyoto [2]; cell cycle stage: G1/S)	melting temperature (HeLa Kyoto [2]; cell cycle stage: mitosis)	solubility change mitosis (log2) (HeLa Kyoto [3])	thermal stability score (HeLa Kyoto [4]; [5])	thermal stability score (HeLa Kyoto [4]; cell cycle stage: mitosis)
MEQPGQDPTSDDVMDSFLEKFQSQPYRGGFHEDQWEKEFEKVPLFMSRAPSEIDPRENPDLACLQSIIFDEERSPEEQAKTYKDEGNDYFKEKDYKKAVISYTEGLKKKCADPDLNAVLYTNRAAAQYYLGNFRSALNDVTAARKLKPCHLKAIIRGALCHLELKHFAEAVNWCDEGLQIDAKEKKLLEMRAKADKLKRIEQRDVRKANLKEKKERNQNEALLQAIKARNIRLSEAACEDEDSASEGLGELFLDGLSTENPHGARLSLDGQGRLSWPVLFLYPEYAQSDFISAFHEDSRFIDHLMVMFGETPSWDLEQKYCPDNLEVYFEDEDRAELYRVPAKSTLLQVLQHQRYFVKALTPAFLVCVGSSPFCKNFLRGRKVYQIR [TTC4]	0.484	49.8 °C	49.4 °C	-0.0862	-0.209	0.287
MFSQQQQQQLQQQQQQLQQLQQQQLQQQQLQQQQLLQLQQLLQQSPPQAPLPMAVSRGLPPQQPQQPLLNLQGTNSASLLNGSMLQRALLLQQLQGLDQFAMPPATYDTAGLTMPTATLGNLRGYGMASPGLAAPSLTPPQLATPNLQQFFPQATRQSLLGPPPVGVPMNPSQFNLSGRNPQKQARTSSSTTPNRKDSSSQTMPVEDKSDPPEGSEEAAEPRMDTPEDQDLPPCPEDIAKEKRTPAPEPEPCEASELPAKRLRSSEEPTEKEPPGQLQVKAQPQARMTVPKQTQTPDLLPEALEAQVLPRFQPRVLQVQAQVQSQTQPRIPSTDTQVQPKLQKQAQTQTSPEHLVLQQKQVQPQLQQEAEPQKQVQPQVQPQAHSQGPRQVQLQQEAEPLKQVQPQVQPQAHSQPPRQVQLQLQKQVQTQTYPQVHTQAQPSVQPQEHPPAQVSVQPPEQTHEQPHTQPQVSLLAPEQTPVVVHVCGLEMPPDAVEAGGGMEKTLPEPVGTQVSMEEIQNESACGLDVGECENRAREMPGVWGAGGSLKVTILQSSDSRAFSTVPLTPVPRPSDSVSSTPAATSTPSKQALQFFCYICKASCSSQQEFQDHMSEPQHQQRLGEIQHMSQACLLSLLPVPRDVLETEDEEPPPRRWCNTCQLYYMGDLIQHRRTQDHKIAKQSLRPFCTVCNRYFKTPRKFVEHVKSQGHKDKAKELKSLEKEIAGQDEDHFITVDAVGCFEGDEEEEEDDEDEEEIEVEEELCKQVRSRDISREEWKGSETYSPNTAYGVDFLVPVMGYICRICHKFYHSNSGAQLSHCKSLGHFENLQKYKAAKNPSPTTRPVSRRCAINARNALTALFTSSGRPPSQPNTQDKTPSKVTARPSQPPLPRRSTRLKT [CIZ1]	-0.24	51.5 °C	53.7 °C	0.168	0.59	2.85
MESSPFNRRQWTSLSLRVTAKELSLVNKNKSSAIVEIFSKYQKAAEETNMEKKRSNTENLSQHFRKGTLTVLKKKWENPGLGAESHTDSLRNSSTEIRHRADHPPAEVTSHAASGAKADQEEQIHPRSRLRSPPEALVQGRYPHIKDGEDLKDHSTESKKMENCLGESRHEVEKSEISENTDASGKIEKYNVPLNRLKMMFEKGEPTQTKILRAQSRSASGRKISENSYSLDDLEIGPGQLSSSTFDSEKNESRRNLELPRLSETSIKDRMAKYQAAVSKQSSSTNYTNELKASGGEIKIHKMEQKENVPPGPEVCITHQEGEKISANENSLAVRSTPAEDDSRDSQVKSEVQQPVHPKPLSPDSRASSLSESSPPKAMKKFQAPARETCVECQKTVYPMERLLANQQVFHISCFRCSYCNNKLSLGTYASLHGRIYCKPHFNQLFKSKGNYDEGFGHRPHKDLWASKNENEEILERPAQLANARETPHSPGVEDAPIAKVGVLAASMEAKASSQQEKEDKPAETKKLRIAWPPPTELGSSGSALEEGIKMSKPKWPPEDEISKPEVPEDVDLDLKKLRRSSSLKERSRPFTVAASFQSTSVKSPKTVSPPIRKGWSMSEQSEESVGGRVAERKQVENAKASKKNGNVGKTTWQNKESKGETGKRSKEGHSLEMENENLVENGADSDEDDNSFLKQQSPQEPKSLNWSSFVDNTFAEEFTTQNQKSQDVELWEGEVVKELSVEEQIKRNRYYDEDEDEE [LIMA1]	-1.45	57.9 °C	54.3 °C	0.392	-0.923	-3.34
MNPNCARCGKIVYPTEKVNCLDKFWHKACFHCETCKMTLNMKNYKGYEKKPYCNAHYPKQSFTMVADTPENLRLKQQSELQSQVRYKEEFEKNKGKGFSVVADTPELQRIKKTQDQISNIKYHEEFEKSRMGPSGGEGMEPERRDSQDGSSYRRPLEQQQPHHIPTSAPVYQQPQQQPVAQSYGGYKEPAAPVSIQRSAPGGGGKRYRAVYDYSAADEDEVSFQDGDTIVNVQQIDDGWMYGTVERTGDTGMLPANYVEAI [LASP1]	0.0591	58.7 °C	60.5 °C	0.0867	-2.02	-2.68
MALQGISVVELSGLAPGPFCAMVLADFGARVVRVDRPGSRYDVSRLGRGKRSLVLDLKQPRGAAVLRRLCKRSDVLLEPFRRGVMEKLQLGPEILQRENPRLIYARLSGFGQSGSFCRLAGHDINYLALSGVLSKIGRSGENPYAPLNLLADFAGGGLMCALGIIMALFDRTRTGKGQVIDANMVEGTAYLSSFLWKTQKLSLWEAPRGQNMLDGGAPFYTTYRTADGEFMAVGAIEPQFYELLIKGLGLKSDELPNQMSMDDWPEMKKKFADVFAEKTKAEWCQIFDGTDACVTPVLTFEEVVHHDHNKERGSFITSEEQDVSPRPAPLLLNTPAIPSFKRDPFIGEHTEEILEEFGFSREEIYQLNSDKIIESNKVKASL [AMACR]	0.155	52.1 °C	52.5 °C	-0.0545	0.0452	0.6
MDVTSSSGGGGDPRQIEETKPLLGGDVSAPEGTKMGAVPCRRALLLCNGMRYKLLQEGDIQVCVIRHPRTFLSKILTSKFLRRWEPHHLTLADNSLASATPTGYMENSVSYSAIEDVQLLSWENAPKYCLQLTIPGGTVLLQAANSYLRDQWFHSLQWKKKIYKYKKVLSNPSRWEVVLKEIRTLVDMALTSPLQDDSINQAPLEIVSKLLSENTNLTTQEHENIIVAIAPLLENNHPPPDLCEFFCKHCRERPRSMVVIEVFTPVVQRILKHNMDFGKCPRLRLFTQEYILALNELNAGMEVVKKFIQSMHGPTGHCPHPRVLPNLVAVCLAAIYSCYEEFINSRDNSPSLKEIRNGCQQPCDRKPTLPLRLLHPSPDLVSQEATLSEARLKSVVVASSEIHVEVERTSTAKPALTASAGNDSEPNLIDCLMVSPACSTMSIELGPQADRTLGCYVEILKLLSDYDDWRPSLASLLQPIPFPKEALAHEKFTKELKYVIQRFAEDPRQEVHSCLLSVRAGKDGWFQLYSPGGVACDDDGELFASMVHILMGSCYKTKKFLLSLAENKLGPCMLLALRGNQTMVEILCLMLEYNIIDNNDTQLQIISTLESTDVGKRMYEQLCDRQRELKELQRKGGPTRLTLPSKSTDADLARLLSSGSFGNLENLSLAFTNVTSACAEHLIKLPSLKQLNLWSTQFGDAGLRLLSEHLTMLQVLNLCETPVTDAGLLALSSMKSLCSLNMNSTKLSADTYEDLKAKLPNLKEVDVRYTEAW [CMIP]	0.271	50.5 °C	48.7 °C	-0.224	0.861	0.998
SEC16A	-0.0963	49.4 °C	49.7 °C	-0.00335	0.0465	2.03
MGARASGGPLARAGLLLLLLLLLLLGLLAPGAQGARGRGGAEKNSYRRTVNTFSQSVSSLFGEDNVRAAQKFLARLTERFVLGVDMFVETLWKVWTELLDVLGLDVSNLSQYFSPASVSSSPARALLLVGVVLLAYWFLSLTLGFTFSVLHVVFGRFFWIVRVVLFSMSCVYILHKYEGEPENAVLPLCFVVAVYFMTGPMGFYWRSSPSGPSNPSNPSVEEKLEHLEKQVRLLNIRLNRVLESLDRSKDK [BRI3BP]	-0.138	55.1 °C	53.1 °C	0.0237	-0.814	-3.07
MENEPDHENVEQSLCAKTSEEELNKSFNLEASLSKFSYIDMDKELEFKNDLIDDKEFDIPQVDTPPTLESILNETDDEDESFILEDPTLLNIDTIDSHSYDTSSVASSDSGDRTNLKRKKKLPDSFSLHGSVMRHSLLKGISAQIVSAADKVDAGLPTAIAVSSLIAVGTSHGLALIFGKDQNQALRLCLGSTSVGGQYGAISALSINNDCSRLLCGFAKGQITMWDLASGKLLRSITDAHPPGTAILHIKFTDDPTLAICNDSGGSVFELTFKRVMGVRTCESRCLFSGSKGEVCCIEPLHSKPELKDHPITQFSLLAMASLTKILVIGLKPSLKVWMTFPYGRMDPSSVPLLAWHFVAVQNYVNPMLAFCRGDVVHFLLVKRDESGAIHVTKQKHLHLYYDLINFTWINSRTVVLLDSVEKLHVIDRQTQEELETVEISEVQLVYNSSHFKSLATGGNVSQALALVGEKACYQSISSYGGQIFYLGTKSVYVMMLRSWRERVDHLLKQDCLTEALALAWSFHEGKAKAVVGLSGDASKRKAIVADRMVEILFHYADRALKKCPDQGKIQVMEQHFQDMVPVIVDYCLLLQRKDLLFSQMYDKLSENSVAKGVFLECLEPYILSDKLVGITPQVMKDLIVHFQDKKLMENVEALIVHMDITSLDIQQVVLMCWENRLYDAMIYVYNRGMNEFISPMEKLFRVIAPPLNAGKTLTDEQVVMGNKLLVYISCCLAGRAYPLGDIPEDLVPLVKNQVFEFLIRLHSAEASPEEEIYPYIRTLLHFDTREFLNVLALTFEDFKNDKQAVEYQQRIVDILLKVMVENSDFTPSQVGCLFTFLARQLAKPDNTLFVNRTLFDQVLEFLCSPDDDSRHSERQQVLLELLQAGGIVQFEESRLIRMAEKAEFYQICEFMYEREHQYDKIIDCYLRDPLREEEVFNYIHNILSIPGHSAEEKQSVWQKAMDHIEELVSLKPCKAAELVATHFSGHIETVIKKLQNQVLLFKFLRSLLDPREGIHVNQELLQISPCITEQFIELLCQFNPTQVIETLQVLECYRLEETIQITQKYQLHEVTAYLLEKKGDIHGAFLIMLERLQSKLQEVTHQGENTKEDPSLKDVEDTMVETIALCQRNSHNLNQQQREALWFPLLEAMMAPQKLSSSAIPHLHSEALKSLTMQVLNSMAAFIALPSILQRILQDPVYGKGKLGEIQGLILGMLDTFNYEQTLLETTTSLLNQDLHWSLCNLRASVTRGLNPKQDYCSICLQQYKRRQEMADEIIVFSCGHLYHSFCLQNKECTVEFEGQTRWTCYKCSSSNKVGKLSENSSEIKKGRITPSQVKMSPSYHQSKGDPTAKKGTSEPVLDPQQIQAFDQLCRLYRGSSRLALLTELSQNRSSESYRPFSGSQSAPAFNSIFQNENFQLQLIPPPVTED [VPS8]	-0.292	52.2 °C	50.1 °C	-0.056	0.78	1.34
MKMKLFQTICRQLRSSKFSVESAALVAFSTSSYSCGRKKKVNPYEEVDQEKYSNLVQSVLSSRGVAQTPGSVEEDALLCGPVSKHKLPNQGEDRRVPQNWFPIFNPERSDKPNASDPSVPLKIPLQRNVIPSVTRVLQQTMTKQQVFLLERWKQRMILELGEDGFKEYTSNVFLQGKRFHEALESILSPQETLKERDENLLKSGYIESVQHILKDVSGVRALESAVQHETLNYIGLLDCVAEYQGKLCVIDWKTSEKPKPFIQSTFDNPLQVVAYMGAMNHDTNYSFQVQCGLIVVAYKDGSPAHPHFMDAELCSQYWTKWLLRLEEYTEKKKNQNIQKPEYSE [MGME1]	0.384	52.9 °C	53.5 °C	0.0664	-0.736	-1.05
